Measurements reported in US20260242478A1 (published 2026).

Key:
[1] = target: T1, Anti-CD28 Fab (SEQ ID NOs: 696, 697); assay: phage ELISA; clonal phage on plate-captured anti-CD28 Fab pre-incubated with CD28 antigen as competitor
T1 construct: Biotinylated and captured on neutravidin coated plates in the phage ELISA
T1 sequence (VH, as listed by the source, chain 1 of 2): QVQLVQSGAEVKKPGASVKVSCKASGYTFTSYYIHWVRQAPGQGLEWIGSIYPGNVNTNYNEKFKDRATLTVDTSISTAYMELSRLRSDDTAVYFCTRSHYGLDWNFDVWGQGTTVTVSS
T1 sequence (VL, as listed by the source, chain 2 of 2): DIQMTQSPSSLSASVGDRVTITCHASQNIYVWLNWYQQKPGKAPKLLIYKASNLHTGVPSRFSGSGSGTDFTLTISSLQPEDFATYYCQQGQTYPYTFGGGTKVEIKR
Method: (§1) After panning, phage infected bacteria were plated out and colonies picked into 96 well blocks. Clonal phage was then amplified and separated from bacterial cells via centrifugation.
(§2) Clonal phage were harvested as crude supematants and screened via standard ELISAs. […] Prior to the addition of clonal phage, wells were incubated with blocking buffer and CD28 antigen or blocking buffer alone. Without washing or aspirating, clonal phage supematants were then added to the wells and incubated for a short time. Wells were then washed followed by detection of bound phage using a horse radish conjugated anti-M13 antibody. Clonal phage of interest were then sent for sequence analysis.

[2] = target: T1, Anti-CD28 Fab (SEQ ID NOs: 696, 697); assay: phage ELISA; clonal phage on plate-captured biotinylated anti-CD28 Fab, anti-M13 HRP detection
Method: as §1, §2

[3] = target: T2, Anti-CD28 Fab (SEQ ID NOs: 696, 697); assay: phage binding ELISA on captured Fab; competitor: CD28 antigen pre-incubated in the wells
T2 construct: Biotinylated and captured on neutravidin coated plates in the phage ELISA
T2 sequence (VH, as listed by the source, chain 1 of 2): as the sequence (VH, as listed by the source, chain 1 of 2) above
T2 sequence (VL, as listed by the source, chain 2 of 2): as the sequence (VL, as listed by the source, chain 2 of 2) above
Method: as §1, §2

| Binder | Phage binding ELISA, Anti-CD28 Fab signal in the presence of CD28 [1] | Phage binding ELISA, Anti-CD28 Fab signal [2] | Anti-CD28 Fab signal in the presence of CD28 (phage binding ELISA) [3] |
| --- | --- | --- | --- |
| YCEGHSIQYMTKCL (tested as crude clonal phage supernatant) [Phage-1001] | 0.13 | 1.53 | – |
| YCDGHLQIYMGKCL (tested as crude clonal phage supernatant) [Phage-1002] | 0.06 | 1.53 | – |
| YCDGHLPEYLAKCL (tested as crude clonal phage supernatant) [Phage-1005] | 0.06 | 1.52 | – |
| YCDGHKAEYMQKCL (tested as crude clonal phage supernatant) [Phage-1015 (Peptide-87 library peptide, SEQ ID NO: 1331)] | – | – | 0.06 |
| YCDGHLAVYMAKCL (tested as crude clonal phage supernatant) [Phage-1006] | 0.08 | 1.52 | – |
| YCDGHLALHMKKCL (tested as crude clonal phage supernatant) [Phage-1019 (Peptide-87 library peptide, SEQ ID NO: 1335)] | – | – | 0.08 |
| YCDGHAPEYLTKCL (tested as crude clonal phage supernatant) [Phage-1000] | 0.06 | 1.53 | – |
| YCDGHSVEYLDKCL (tested as crude clonal phage supernatant) [Phage-1003] | 0.08 | 1.53 | – |
| YCDGHHKEYLLKCL (tested as crude clonal phage supernatant) [Phage-1018 (Peptide-87 library peptide, SEQ ID NO: 1334)] | – | – | 0.06 |
| YCDGHAWQYMWKCL (tested as crude clonal phage supernatant) [Phage-1004] | 0.07 | 1.53 | – |
| YCEGHLGQYMEKCL (tested as crude clonal phage supernatant) [Phage-998] | 0.08 | 1.54 | – |
| YCAGHLEEYMWKCL (tested as crude clonal phage supernatant) [Phage-1009] | 0.08 | 1.51 | – |
| YCEGHAPVYMFKCL (tested as crude clonal phage supernatant) [Phage-997] | 0.08 | 1.54 | – |
| YCSGHLPQYLEKCL (tested as crude clonal phage supernatant) [Phage-1017 (Peptide-87 library peptide, SEQ ID NO: 1333)] | – | – | 0.31 |
| YCAGHLPVYMDKCL (tested as crude clonal phage supernatant) [Phage-1007] | 0.08 | 1.52 | – |
| YCDGHSAEYLSKCL (tested as crude clonal phage supernatant) [Phage-1011 (Peptide-87 library peptide, SEQ ID NO: 1327)] | – | – | 0.07 |
| YCDGHSPQYIQKCL (tested as crude clonal phage supernatant) [Phage-1016 (Peptide-87 library peptide, SEQ ID NO: 1332)] | – | – | 0.07 |
| YCDGHNGVYWWKCI (tested as crude clonal phage supernatant) [Phage-999] | 0.07 | 1.53 | – |
| YCEGHSAMYIWKCL (tested as crude clonal phage supernatant) [Phage-1008] | 0.1 | 1.52 | – |
